Results as given in the supplement of paper PMC10567573.

B1: ZNF449 (parent)
chain: RIHSGEEPHKCPECGKRFLRSSDL
B2: DCAF4 (parent)
chain: TTKCVRQYEGHVNEYAYLPLHVHE

Variants of: B1
Experiment: protein stability index of a GFP-peptide fusion (GPS, HEK-293T) (PSI 1-6); higher = more stable
Details: c terminus: a fixed tail appended
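Also: lentivirally expressed fusions sorted by FACS into six bins by GFP to DsRed ratio, PSI derived from sequencing read proportions per bin multiplied by bin number.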

Variant | protein stability index
E13S | 3.63
E13V | 3.44
E13W | 3.86
E13G | 3.21
E13I | 3.26
E13C | 3.71
E13T | 3.41
E13F | 3.77
E13N | 3.43
E13Y | 3.54
E13L | 3.38
E13K | 2.72
E13D | 2.59
E13A | 2.72
E13Q | 2.13
E13H | 3.34
E13P | 3.6
E13R | 2.84
E13M | 2.92
D23V | 1.73
D23I | 1.61
D23F | 2.04
D23Y | 1.72
D23T | 2.7
D23E | 2.52
D23K | 2.77

Variant | protein stability index
D23P | 2.29
D23L | 2.16
D23N | 2.8
D23S | 2.46
D23H | 3.41
D23Q | 1.86
D23R | 1.51
D23C | 2.75
D23A | 2.23
G15N | 3.52
G15M | 3.88
G15L | 3.58
G15K | 3.63
G15T | 3.89
G15A | 3.9
G15D | 3.27
G15Y | 3.44
G15P | 4.37
G15Q | 3.85
G15C | 3.28
G15E | 4.24
G15I | 3.6
G15V | 3.25
G15W | 2.87
G15F | 3.48
G15S | 3.76

Variant | protein stability index
G15H | 2.87
F18C | 4.15
F18D | 4.4
F18P | 3.83
F18K | 4.33
F18E | 4.56
F18I | 3.22
F18S | 3.29
F18L | 2.86
F18R | 3.33
F18A | 5.36
F18T | 3.75
F18N | 4.68
F18V | 2.92
F18M | 3.32
F18Q | 3.58
F18W | 3.5
F18Y | 3.87
L24Y | 3.29
L24H | 3.63
L24S | 3.88
L24D | 4.61
L24V | 3.31
L24A | 3.92
L24E | 4.42
L24W | 2.93

Variant | protein stability index
L24C | 3.63
L24Q | 4.91
L24P | 4.12
L24G | 3.82
L24R | 2.29
L24F | 3.3
L24T | 3.79
L24M | 3.41
L24I | 2.5
L24N | 3.89
L24K | 3.96
K16E | 3.99
K16L | 2.78
K16F | 2.55
K16H | 3.19
K16M | 2.61
K16I | 2.93
K16V | 2.37
K16T | 3.68
K16R | 3.9
K16G | 3.13
K16S | 3.68
K16Y | 3.77
K16D | 4.41
K16C | 3.32
K16Q | 3.66

Variant | protein stability index
K16W | 2.69
K16P | 3.82
K16N | 3.58
S22A | 2.93
S22M | 2.28
S22C | 3.94
S22N | 3.3
S22I | 2.77
S22H | 3.56
S22G | 3.74
S22K | 2.57
S22D | 4.06
S22R | 3.02
S22L | 2.67
S22Y | 3.01
S22T | 3.05
S22F | 2.77
S22W | 1.94
S22P | 3.5
S22V | 3.58
S22E | 3.62
R20L | 3.32
R20K | 3.25
R20A | 4.09
R20E | 3.91
R20F | 3.35

Variant | protein stability index
R20I | 2.91
R20H | 2.89
R20D | 3.47
R20S | 3.82
R20W | 2.31
R20N | 4.21
R20V | 2.27
R20C | 3.88
R20Y | 2.86
R20Q | 4.3
R20M | 3.41
R20T | 3.17
R20P | 3.99
R17M | 3.59
R17A | 3.61
R17C | 3.74
R17K | 4.13
R17G | 3.12
R17H | 4.23
R17D | 3.71
R17Q | 3.63
R17S | 4
R17E | 4.2
R17V | 3.17
R17N | 3.4
R17F | 3.2

Variant | protein stability index
R17P | 3.66
R17T | 3.97
R17L | 3.08
R17I | 3.72
R17Y | 3.58
R17W | 3.97
L19H | 3.41
L19S | 4.05
L19T | 3.65
L19R | 3.74
L19K | 4.04
L19E | 4.32
L19P | 3.54
L19D | 3.88
L19A | 3.96
L19I | 2.76
L19N | 3.27
L19M | 4.05
L19V | 3.32
L19G | 4.31
L19Y | 3.23
L19F | 3.26
L19W | 3.09
L19C | 4.48
L19Q | 4.41
C14I | 5

Variant | protein stability index
C14M | 4.21
C14W | 4.39
C14Q | 4.96
C14Y | 3.6
C14P | 4.06
C14V | 4.21
C14G | 4.65
C14R | 4.32
C14F | 3.47
C14K | 3.87
C14H | 3.95
C14E | 5.1
C14T | 4.69
C14L | 3.79
C14S | 4.77
C14N | 4.3
C14D | 4.58
C14A | 4.26
P12G | 3.08
P12S | 3.66
P12Q | 3.33
P12N | 4.18
P12W | 2.05
P12T | 3.76
P12H | 3.24
P12K | 3.2

Variant | protein stability index
P12R | 2.92
P12M | 3.36
P12L | 3.23
P12I | 2.94
P12Y | 3.12
P12V | 3.5
S21Q | 2.75
S21H | 3.44
S21M | 2.24
S21N | 3.56
S21A | 3.31
S21Y | 3.22
S21F | 2.15
S21I | 3.04
S21R | 2.65
S21P | 2.86
S21D | 4.25
S21T | 3.56
S21C | 3.69
S21K | 4.17
S21L | 2.48
S21G | 3.75

Variants of: B2
Experiment: as above
Details: c terminus: a fixed tail appended

Variant | protein stability index
L20S | 3.13
L20H | 3
L20D | 3.64
Y17R | 3.06
Y17I | 2.86
Y17N | 3.08
Y17C | 3.51
Y17W | 2.69
Y17L | 3.79
V12K | 3.33
V12T | 2.85
V12P | 2.69
V12Y | 2.52
V12D | 3.19
Y8C | 2.66
Y8P | 2.42
Y8N | 3.31
Y8M | 2.89
Y8K | 3.52
Y8R | 2.94
Y8A | 2.65
Y8L | 2.79
Y8W | 2.42
Q7I | 2.17
Q7K | 2.77
Q7P | 2.06

Variant | protein stability index
Q7G | 2.13
Q7Y | 1.79
H21P | 2.63
H21F | 1.87
H21G | 2.06
V5P | 2.95
V5L | 2.84
V5D | 3.34
C4R | 2.69
C4T | 3.42
C4M | 3.45
R6A | 3.02
R6E | 3.12
H23N | 2.81
H23V | 2.19
G10D | 3.07
G10K | 3.44
G10I | 1.43
G10W | 1.65
E14M | 1.43
E14W | 1.14
E14H | 2.05
E14Q | 2.35
Y15C | 3.56
Y15T | 2.59
Y15A | 3.57

Variant | protein stability index
Y15R | 3.43
Y15K | 2.85
Y15I | 3.09
Y15P | 3.51
Y15L | 2.97
Y15H | 3.02
T1W | 1.92
T1N | 2.4
T1D | 3.45
N13K | 2.48
N13L | 2.85
N13P | 3.12
N13Q | 2.32
N13E | 3.55
N13H | 2.5
A16H | 3.05
A16P | 3.02
A16L | 2.33
A16F | 2.32
V22A | 2.79
V22P | 2.63
V22D | 3.85
V22H | 2.96
H11Q | 2.53
H11R | 2.44
H11G | 2.38

Variant | protein stability index
H11N | 2.96
H11M | 2.26
H11K | 2.66
H11A | 2.7
H11V | 3.56
E9F | 1.76
E9S | 2.04
E9Y | 1.97
E9G | 2.55
E9R | 2.18
T2A | 2.47
T2K | 2.64
T2G | 2.69
T2P | 3.05
T2V | 2.46
T2W | 2.43
P19G | 2.26
P19A | 1.89
L18V | 2.48
L18Y | 2.38
L18T | 2.79
L18R | 2.89
L18W | 2.28
E24F | 2.85
E24A | 1.17
E24D | 2.84
